Measured values published in patent US20200261595A1 (Novo Nordisk, published 2020).

B1: (A14E, A21G, A22(GQAP)18, A94G, A95Q, A96A, A97K^, A98P, B16E, B25H, B29R, desB30 human insulin)/(227A, 234A, 235K, 297E, 315Q, 384Q, des447 hIgG4-Fc(228-447)) … (other)
chain 1: GIVEQCCTSICSLEQLENYCGGQAPGQAPGQAPGQAPGQAPGQAPGQAPGQAPGQAPGQAPGQAPGQAPGQAPGQAPGQAPGQAPGQAPGQAPGQAKP
chain 2: FVNQHLCGSHLVEALELVCGERGFHYTPR
chain 3: ASCPAPEAKGGPSVFLFPPKPKDTLMISRTPEVTCVVVDVSQEDPEVQFNWYVDGVEVHNAKTKPREEQFESTYRVVSVLTVLHQDWLQGKEYKCKVSNKGLPSSIEKTISKAKGQPREPQVYTLPPSQEEMTKNQVSLTCLVKGFYPSDIAVEWESQGQPENNYKTTPPVLDSDGSFFLYSRLTVDKSRWQEGNVFSCSVMHEALHNHYTQKSLSLSLG
modifications: Cys229 (EU numbering) sulphur bound to an acetyl arm of the linker; A97K N(eps) acylated by the trivalent linker 4-[bis[2-[(2-acetyl)amino]ethyl]amino]-4-oxo-butanoyl
B2: A14E, A21G, A22(GQEP)12, A70K^, A71P, B25H, B29R, desB30 human insulin/(227A, 234A, 235K hIgG4-Fc(228-447)) … (other)
chain 1: GIVEQCCTSICSLEQLENYCGGQEPGQEPGQEPGQEPGQEPGQEPGQEPGQEPGQEPGQEPGQEPGQEPKP
chain 2: FVNQHLCGSHLVEALYLVCGERGFHYTPR
chain 3: ASCPAPEAKGGPSVFLFPPKPKDTLMISRTPEVTCVVVDVSQEDPEVQFNWYVDGVEVHNAKTKPREEQFNSTYRVVSVLTVLHQDWLNGKEYKCKVSNKGLPSSIEKTISKAKGQPREPQVYTLPPSQEEMTKNQVSLTCLVKGFYPSDIAVEWESNGQPENNYKTTPPVLDSDGSFFLYSRLTVDKSRWQEGNVFSCSVMHEALHNHYTQKSLSLSLGK
modifications: Cys229 (EU numbering) sulphur bound to an acetyl arm of the linker; A70K N(eps) acylated by the trivalent linker 4-[bis[2-[(2-acetyl)amino]ethyl]amino]-4-oxo-butanoyl
notes: also called Ex 5.8
B3: A14E, A21G, A22(GQAPGQAPGQEP)6-GQAP, A98K^, A99P, B3Q, B25H, B29R, desB30 human insulin/(227A, 234A, 235K hIgG4-Fc(228-447)) … (other)
chain 1: GIVEQCCTSICSLEQLENYCGGQAPGQAPGQEPGQAPGQAPGQEPGQAPGQAPGQEPGQAPGQAPGQEPGQAPGQAPGQEPGQAPGQAPGQEPGQAPKP
chain 2: FVQQHLCGSHLVEALYLVCGERGFHYTPR
chain 3: B2 chain 3
modifications: Cys229 (EU numbering) sulphur bound to an acetyl arm of the linker; A98K N(eps) acylated by the trivalent linker 4-[bis[2-[(2-acetyl)amino]ethyl]amino]-4-oxo-butanoyl
notes: also called Ex 5.5
B4: (A14E, A21G, A22(GQEP)19, A98K^, A99P, B25H, B29R, desB30 human insulin)/(227A, 234A, 235K hIgG4-Fc(228-447)) … (other)
chain 1: GIVEQCCTSICSLEQLENYCGGQEPGQEPGQEPGQEPGQEPGQEPGQEPGQEPGQEPGQEPGQEPGQEPGQEPGQEPGQEPGQEPGQEPGQEPGQEPKP
chain 2: FVNQHLCGSHLVEALYLVCGERGFHYTPR
chain 3: B2 chain 3
modifications: Cys229 (EU numbering) sulphur bound to an acetyl arm of the linker; A98K N(eps) acylated by the trivalent linker 4-[bis[2-[(2-acetyl)amino]ethyl]amino]-4-oxo-butanoyl
notes: Fc made in E. coli; also called Ex 5.1
B5: A14E, A21G, A22(GQEP)6, A46K^, A47P, B25H, B29R, desB30 human insulin/(227A, 234A, 235K hIgG4-Fc(228-447)) … (other)
chain 1: GIVEQCCTSICSLEQLENYCGGQEPGQEPGQEPGQEPGQEPGQEPKP
chain 2: FVNQHLCGSHLVEALYLVCGERGFHYTPR
chain 3: B2 chain 3
modifications: Cys229 (EU numbering) sulphur bound to an acetyl arm of the linker; A46K N(eps) acylated by the trivalent linker 4-[bis[2-[(2-acetyl)amino]ethyl]amino]-4-oxo-butanoyl
notes: also called Ex 5.7

These binders were tested against T1, insulin receptor A (UniProt P06213-2 28-1370, limits assumed) (assay: insulin receptor binding assay as in Vienberg et al. 2011; relative to human insulin on insulin receptor A (100%)).
T1 sequence (P06213 other isoform, or with tags, fused parts or gaps limits assumed): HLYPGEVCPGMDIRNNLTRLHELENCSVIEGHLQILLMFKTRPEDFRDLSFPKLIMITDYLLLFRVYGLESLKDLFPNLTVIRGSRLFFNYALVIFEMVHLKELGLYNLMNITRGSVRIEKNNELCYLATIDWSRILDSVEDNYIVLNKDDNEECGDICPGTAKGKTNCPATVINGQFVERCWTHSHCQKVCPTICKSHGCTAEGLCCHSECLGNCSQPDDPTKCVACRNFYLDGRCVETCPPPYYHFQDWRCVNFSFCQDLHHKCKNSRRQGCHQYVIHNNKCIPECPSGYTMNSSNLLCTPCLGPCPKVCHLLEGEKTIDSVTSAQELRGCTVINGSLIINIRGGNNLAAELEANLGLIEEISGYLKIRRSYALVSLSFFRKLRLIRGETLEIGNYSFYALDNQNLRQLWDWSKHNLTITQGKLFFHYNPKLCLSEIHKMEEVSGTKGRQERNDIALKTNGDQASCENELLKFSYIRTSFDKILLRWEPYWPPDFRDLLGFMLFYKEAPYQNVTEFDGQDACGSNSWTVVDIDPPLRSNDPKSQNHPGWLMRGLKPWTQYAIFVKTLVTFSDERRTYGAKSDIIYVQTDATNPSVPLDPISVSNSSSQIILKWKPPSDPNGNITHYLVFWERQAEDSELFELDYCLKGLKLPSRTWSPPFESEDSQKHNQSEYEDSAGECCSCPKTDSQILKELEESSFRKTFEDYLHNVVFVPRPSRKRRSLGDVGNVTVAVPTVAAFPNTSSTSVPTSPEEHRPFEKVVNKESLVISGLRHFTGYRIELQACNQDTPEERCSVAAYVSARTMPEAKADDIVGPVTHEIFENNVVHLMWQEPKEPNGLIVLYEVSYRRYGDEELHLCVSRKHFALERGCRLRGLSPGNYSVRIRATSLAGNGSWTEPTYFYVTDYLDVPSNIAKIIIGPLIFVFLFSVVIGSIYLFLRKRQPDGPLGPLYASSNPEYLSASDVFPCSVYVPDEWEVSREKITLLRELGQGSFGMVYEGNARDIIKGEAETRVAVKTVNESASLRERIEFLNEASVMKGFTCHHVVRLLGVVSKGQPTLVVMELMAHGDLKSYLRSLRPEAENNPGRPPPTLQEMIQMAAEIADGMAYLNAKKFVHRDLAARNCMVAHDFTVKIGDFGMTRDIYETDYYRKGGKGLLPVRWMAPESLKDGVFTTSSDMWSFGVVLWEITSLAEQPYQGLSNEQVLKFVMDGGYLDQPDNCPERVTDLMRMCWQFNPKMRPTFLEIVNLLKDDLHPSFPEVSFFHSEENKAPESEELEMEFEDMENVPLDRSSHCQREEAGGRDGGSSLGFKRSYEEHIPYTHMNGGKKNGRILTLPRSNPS
With B1 the “Insulin receptor affinity [IC50 relative to HI (%)]” value was 0.47%. In the case of B2, the “Insulin receptor affinity [IC50 relative to HI (%)]” value is reported as 10.6%. For B3, the “Insulin receptor affinity [IC50 relative to HI (%)]” value was 3.34%. B4 was tested, and the “Insulin receptor affinity [IC50 relative to HI (%)]” value was 5.07%. In the case of B5, the “Insulin receptor affinity [IC50 relative to HI (%)]” value is reported as 2.43%.

The binders below were run against T1, insulin receptor A (assay: summary of Table 3; upper end tied by Table 3 to the compound of Example 5.8 (10.58)).
In the case of B2, the “insulin receptor affinity relative to human insulin” value is reported as 0.5 to 10%.

These binders were tested against T1, insulin receptor A (assay: summary of Table 3; lower end tied by Table 3 to the compound of Example 5.31 (0.47)).
With B1 the “insulin receptor affinity relative to human insulin” value was 0.5 to 10%.

These binders were tested against insulin receptor of isolated rat adipocytes (rat, UniProt P15127 27-1383) (assay: cell-based or functional assay).
Sequence of insulin receptor of isolated rat adipocytes (P15127 27-1383): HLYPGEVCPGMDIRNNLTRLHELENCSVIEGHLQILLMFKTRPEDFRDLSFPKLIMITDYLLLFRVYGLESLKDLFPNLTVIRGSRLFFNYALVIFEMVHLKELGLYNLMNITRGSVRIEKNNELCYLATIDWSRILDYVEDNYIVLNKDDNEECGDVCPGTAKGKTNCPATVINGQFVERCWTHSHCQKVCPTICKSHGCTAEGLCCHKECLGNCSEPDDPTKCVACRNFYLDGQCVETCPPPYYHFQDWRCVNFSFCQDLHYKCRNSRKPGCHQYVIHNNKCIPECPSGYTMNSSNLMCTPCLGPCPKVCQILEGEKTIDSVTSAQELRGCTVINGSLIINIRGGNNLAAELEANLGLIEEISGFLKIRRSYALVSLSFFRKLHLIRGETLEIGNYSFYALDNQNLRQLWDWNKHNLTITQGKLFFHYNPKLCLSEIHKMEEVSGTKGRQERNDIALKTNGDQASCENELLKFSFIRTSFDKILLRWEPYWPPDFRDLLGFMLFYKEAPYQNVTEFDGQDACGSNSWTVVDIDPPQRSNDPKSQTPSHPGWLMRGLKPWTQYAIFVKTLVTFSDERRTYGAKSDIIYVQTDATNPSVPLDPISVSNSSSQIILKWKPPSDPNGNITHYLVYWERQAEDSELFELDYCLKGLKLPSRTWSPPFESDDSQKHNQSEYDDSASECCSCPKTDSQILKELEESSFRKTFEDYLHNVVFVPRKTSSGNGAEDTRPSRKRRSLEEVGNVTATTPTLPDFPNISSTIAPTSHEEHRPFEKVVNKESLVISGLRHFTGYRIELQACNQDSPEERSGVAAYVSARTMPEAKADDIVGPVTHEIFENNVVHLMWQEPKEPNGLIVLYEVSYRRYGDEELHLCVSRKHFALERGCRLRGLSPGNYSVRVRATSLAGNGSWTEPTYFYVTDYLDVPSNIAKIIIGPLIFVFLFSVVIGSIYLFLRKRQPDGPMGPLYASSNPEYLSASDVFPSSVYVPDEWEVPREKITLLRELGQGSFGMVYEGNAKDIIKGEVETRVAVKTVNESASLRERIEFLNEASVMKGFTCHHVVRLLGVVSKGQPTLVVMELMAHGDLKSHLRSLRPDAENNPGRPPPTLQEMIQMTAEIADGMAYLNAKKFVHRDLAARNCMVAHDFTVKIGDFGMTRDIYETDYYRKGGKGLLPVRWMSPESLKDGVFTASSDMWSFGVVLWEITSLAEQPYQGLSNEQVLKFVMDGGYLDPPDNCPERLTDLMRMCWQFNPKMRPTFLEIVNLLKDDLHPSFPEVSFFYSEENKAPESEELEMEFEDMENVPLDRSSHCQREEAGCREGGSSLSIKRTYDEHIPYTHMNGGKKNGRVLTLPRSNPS
With B1 the “Lipogenesis in rat adipocytes [Potency (%)] Mean Value” was 0.6 % of human insulin. B2 was tested, and the “Lipogenesis in rat adipocytes [Potency (%)] Mean Value” was 5.31 % of human insulin. B3 was tested, and the “Lipogenesis in rat adipocytes [Potency (%)] Mean Value” was 2.21 % of human insulin. B4 was tested, and the “Lipogenesis in rat adipocytes [Potency (%)] Mean Value” was 6.69 % of human insulin. With B5 the “Lipogenesis in rat adipocytes [Potency (%)] Mean Value” was 1.88 % of human insulin.
